# Measurements as given in article PMC11676761, “Mining and Characterization of Amylosucrase from Calidithermus terrae for Synthesis of α-Arbutin Using Sucrose” (International Journal of Molecular Sciences, 2024).
# B1: (Calidithermus terrae) (protein)
# chain: MFSTPLPAELRPLLERLLVQAESDLSGSDLETFSLRLERYLPDLHAGLAAVYPDVEGLLERLLPVLTAAHRARPAGLKRLDAHRLLAPDWFQRPEMIAYVAYTERFAGTLKGIEERLDYLEELGVRYLHLMPFLKPRPAPHDGGYAVMDYRAVREDLGSMDDLEALTAKLRARGIALCCDLVLNHVAQEHEWAVRARAGEARYQHYFHMFPDRTLPDEYEKTLPEVFPDFAPGNFTFDEASGKWVWTTFNRWQWDLNWANPAVFLEFADLILWLANRGVEVFRLDAIAFIWKRLGTNCQNQPEVHAITQALRAVARVVAPAVLFKAEAIVAPDDLIHYLGQGEHFGLVSDTAYHNSLMVQIWSSLASRDVRLMSEALRRFPVKPTNTAWNTYLRCHDDIGWAIADDDAARVGLSGEAHRRFLSDYYSGRFPTSPSRGLVFQENPRTGDRRISGSGASLAGLEQALEQNDPRQVHLSLERLLLGHAVVLGFGGIPLLYMGDELALLNDYSYLEEPEHAEDNRWVHRPHMDWDKAARAKADPASTEGRMYHGLLHLIRVRRATPHFHAAIEAQILEPRNPHVFGYVRRHPLGNLVALYNFSEEVQYYPAEVLWQQGLSLPHDRIGGQLVPIERHLVRLEPYARLWITDEV
# Substrate: OC[C@H]1O[C@@](CO)(O[C@H]2O[C@H](CO)[C@@H](O)[C@H](O)[C@H]2O)[C@@H](O)[C@@H]1O
# Test: DNS assay of released fructose, Lineweaver-Burk
# Type: biochemical, Calidithermus terrae
# Settings: 42.0 °C
protein,measurement,value
B1,Km,89.39 mM
same,kcat,86.3995 s⁻¹
